Measurements taken from PMC5582136.

How the values were obtained:
[1] = target: fibrillin-1 cbEGF22-TB4 domain pair (residues 1486–1605) (human) (UniProt P35555); assay: SPR
[2] = target: fibrillin-1 TB4-cbEGF23 domain pair (residues 1527–1647) (human) (UniProt P35555); assay: SPR

fold difference in Ka against TB4-cbEGF23 [1]: 2 fold
koff [2]: 0.0016 s⁻¹
Substance: native αVβ3 integrin purified from human placental extract (from UniProt P05106 27-788) (receptor)
